PMC2723105, “DNA binding by Corynebacterium glutamicum TetR-type transcription regulator AmtR”
Positions count from the first letter of the chain named.

What was measured:
Test in all cases: EMSA
Settings in all cases: EMSA: DIG gel shift kit (Roche) conditions, 0.04 ng DNA, native 6% PAGE in 0.5x TBE; SPR: HBS-EP running buffer, 25 °C, BIAcoreX, nonspecific 30-mer DNA in the …
[1] = target: T1, AmtR-MBP S55A S55A (Corynebacterium glutamicum ATCC13032) (UniProt H7C699)
T1 sequence: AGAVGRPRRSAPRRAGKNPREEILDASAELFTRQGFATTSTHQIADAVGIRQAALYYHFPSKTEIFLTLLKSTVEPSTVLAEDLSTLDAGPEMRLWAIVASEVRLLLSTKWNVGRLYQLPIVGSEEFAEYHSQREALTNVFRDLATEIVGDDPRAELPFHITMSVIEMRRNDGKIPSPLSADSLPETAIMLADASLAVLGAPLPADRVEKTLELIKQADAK

[2] = tested on: AmtR-MBP E30A (Corynebacterium glutamicum ATCC13032)
[3] = tested on: AmtR-MBP L71A (Corynebacterium glutamicum ATCC13032)
[4] = tested on: AmtR-MBP T33A (Corynebacterium glutamicum ATCC13032)
[5] = target: T2, AmtR-MBP Y58A Y58A (Corynebacterium glutamicum ATCC13032) (UniProt H7C699)
T2 sequence: T1 sequence with A54S, Y57A

[6] = target: T3, AmtR-MBP T42A T42A (Corynebacterium glutamicum ATCC13032) (UniProt H7C699)
T3 sequence: T1 sequence with T41A, A54S

[7] = target: T4, AmtR-MBP Y57A Y57A (Corynebacterium glutamicum ATCC13032) (UniProt H7C699)
T4 sequence: T1 sequence with A54S, Y56A

| Substance | Kd [1] | Kd [2] | Kd [3] | Kd [4] | binding [5] | binding [6] | binding [7] |
| --- | --- | --- | --- | --- | --- | --- | --- |
| amtB promoter PCR fragment | 71 µM | 10 µM | 20 µM | 2.2 µM |  |  |  |
| GCTGGGCTAGAAACCCGATAAGCGAGAACCACCTGTCGGATGTTGTCTGGCAGGTGGTTTTCTTTTGCCTGGGTACCACCAAAAAGCAGCTGTGATGCACTTAACAATTCATTAAATTACCTGTTAAACTATAGAAAATATCCAAAACCCTCCAAAACCTATTCTATAGATCTATTGAAATTAGTTTCTGTAGGTCTATAGTTAGAGCTGGTTCAAGGGGTGTCAATCCCAAAAGGCACTCCTTGAACTCATGAAAAAGCTTGACAAAACTTCAACGTCAAAGGAGGTCATCCACGC (double strand) [amtB promoter PCR fragment] | 71 µM |  |  |  | binds more weakly | binds | binds more weakly |
